In patent CN112079918A (CANVEST WUHAN BIOTECHNOLOGY CO LTD, dated 2020) one finds binding result and EC50 data, which are given here for one molecule.

One assay deals with BSA (UniProt P02769 25-607). Briefly: ELISA.
Assay [1] deals with 17SF HA (A/Guangdong/17SF003/2016) hemagglutinin protein (influenza A virus A/Guangdong/17SF003/2016 (H7N9)). Nature of the assay: ELISA, P51C05 IgG on HA protein.
In assay [2] the target is SH02 HA (A/Shanghai/2/2013 H7N9) hemagglutinin protein (influenza A virus A/Shanghai/2/2013 (H7N9)). Nature of the assay: ELISA, P51C05 IgG on HA protein.

Chain of BSA (P02769 25-607 limits assumed): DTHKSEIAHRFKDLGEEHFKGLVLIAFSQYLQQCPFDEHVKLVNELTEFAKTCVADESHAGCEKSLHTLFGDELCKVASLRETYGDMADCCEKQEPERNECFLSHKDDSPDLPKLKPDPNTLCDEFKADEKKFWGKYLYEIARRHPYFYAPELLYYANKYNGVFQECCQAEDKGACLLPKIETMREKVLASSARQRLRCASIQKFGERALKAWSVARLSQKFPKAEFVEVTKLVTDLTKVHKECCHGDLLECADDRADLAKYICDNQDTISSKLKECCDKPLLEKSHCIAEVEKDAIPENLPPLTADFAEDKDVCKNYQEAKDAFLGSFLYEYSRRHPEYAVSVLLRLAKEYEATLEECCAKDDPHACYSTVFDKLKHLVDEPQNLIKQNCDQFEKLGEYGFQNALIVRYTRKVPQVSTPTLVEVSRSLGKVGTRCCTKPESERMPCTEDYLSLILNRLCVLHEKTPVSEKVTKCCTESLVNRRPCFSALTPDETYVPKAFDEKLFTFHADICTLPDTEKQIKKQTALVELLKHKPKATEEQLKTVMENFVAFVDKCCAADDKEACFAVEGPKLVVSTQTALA

B1: H7N9病毒特异性识别抗体P51C05 (IgG形式) (antibody, V domains shown)
VH: EVQLVQSGSELKKPGASVKVSCKASGYTFTSYTMNWVRQAPGQGLEWMGWINTNTGNPTYAQGFTGRFVFSLDTSVSTAYLQISSLKTEDTAVYYCARGVYGMDVWGQGTTVTVSS
VL: EIVLTQSPGTLSLSPGERATFSCRASQTVSNYLAWYQQKVGQAPRLLIYDASNRATGIPARFSGSGSGTDFTLTISSLEPEDFAVYYCQQRYNWPLTFGGGTKVEIKG
On to B1, for which the binding result with BSA is “no binding”. Further, the EC50 in assay [1] and in assay [2] was under 1 nM each time.
